Test results: patent US20210317204A1 (ALMAC DISCOVERY, published 2021)
Substitutions are numbered along the chain they refer to. One block for each binder: values may come before it.

Legend:
D3-[G4S]5-D3 homodimer = target: T1, D3-[G4S]5-D3 homodimer; assay: competition ELISA: VNAR pre-incubated with peptide 5, residual binding to coated huROR1-Fc [continued]
T1 construct: also called D3-D3; D3D3; not shown: C-terminal His6 or His6Myc tag (His6Myc in flow cytometry)

[1] = target: T2, B1 VNAR (C-terminal His6 or His6Myc tag, not said which); assay: as above
T2 construct: shark VNAR domain; also called VNAR B1; B1 monomer

D3 VNAR = target: T3, D3 VNAR; assay: as above
T3 construct: shark VNAR domain; also called D3 WT; D3 monomer; not shown: C-terminal His6 or His6Myc tag (His6Myc in flow cytometry)

[2] = target: T4, human ROR1 extracellular domain-Fc fusion (human, UniProt Q01973 30-406); assay: SPR
T4 construct: extracellular domain; also called hROR1; ROR1-hFc

[3] = target: T5, human ROR2 extracellular domain-Fc fusion (human, UniProt Q01974 34-403); assay: SPR
T5 construct: extracellular domain; also called hROR2; ROR2-hFc

[4] = target: T5, human ROR2 extracellular domain-Fc …; assay: ELISA on coated human ROR2-Fc
[5] = target: T6, rat ROR1 extracellular domain-Fc fusion (rat, UniProt D3ZZ97 30-406); assay: ELISA on coated rat ROR1-Fc
T6 construct: extracellular domain; also called rROR1

[6] = target: T4, human ROR1 extracellular domain-Fc …; assay: SPR, ROR1-hFc on chip; E. coli
[7] = target: T7, mouse ROR1 extracellular domain-Fc fusion (mouse, UniProt Q9Z139 30-406); assay: SPR, mROR1 on chip
T7 construct: extracellular domain; also called mROR1; mouse ROR1-Fc

[8] = target: T6, rat ROR1 extracellular domain-Fc fusion; assay: SPR, rROR1 on chip
mouse serum albumin = target: T8, mouse serum albumin (mouse, UniProt P07724 25-608); assay: SPR, albumin on chip
T8 construct: also called MSA

rat serum albumin = target: T9, rat serum albumin (rat, UniProt P02770 25-608); assay: SPR, albumin on chip
T9 construct: also called RSA

[9] = target: T5, human ROR2 extracellular domain-Fc …; assay: SPR; remark: listed apart in the source

T7 sequence (Q9Z139 30-406): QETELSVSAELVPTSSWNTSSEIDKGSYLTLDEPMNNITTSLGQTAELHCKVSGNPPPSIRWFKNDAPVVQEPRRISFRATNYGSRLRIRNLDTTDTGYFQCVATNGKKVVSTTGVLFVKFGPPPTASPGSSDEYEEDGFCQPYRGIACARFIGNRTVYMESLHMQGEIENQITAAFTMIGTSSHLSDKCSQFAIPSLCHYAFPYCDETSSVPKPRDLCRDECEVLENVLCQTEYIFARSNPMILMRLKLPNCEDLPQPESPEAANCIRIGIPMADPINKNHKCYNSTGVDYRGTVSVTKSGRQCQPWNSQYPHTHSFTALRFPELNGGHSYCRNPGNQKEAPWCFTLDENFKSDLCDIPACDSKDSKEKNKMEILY
T8 sequence (P07724 25-608 limits assumed): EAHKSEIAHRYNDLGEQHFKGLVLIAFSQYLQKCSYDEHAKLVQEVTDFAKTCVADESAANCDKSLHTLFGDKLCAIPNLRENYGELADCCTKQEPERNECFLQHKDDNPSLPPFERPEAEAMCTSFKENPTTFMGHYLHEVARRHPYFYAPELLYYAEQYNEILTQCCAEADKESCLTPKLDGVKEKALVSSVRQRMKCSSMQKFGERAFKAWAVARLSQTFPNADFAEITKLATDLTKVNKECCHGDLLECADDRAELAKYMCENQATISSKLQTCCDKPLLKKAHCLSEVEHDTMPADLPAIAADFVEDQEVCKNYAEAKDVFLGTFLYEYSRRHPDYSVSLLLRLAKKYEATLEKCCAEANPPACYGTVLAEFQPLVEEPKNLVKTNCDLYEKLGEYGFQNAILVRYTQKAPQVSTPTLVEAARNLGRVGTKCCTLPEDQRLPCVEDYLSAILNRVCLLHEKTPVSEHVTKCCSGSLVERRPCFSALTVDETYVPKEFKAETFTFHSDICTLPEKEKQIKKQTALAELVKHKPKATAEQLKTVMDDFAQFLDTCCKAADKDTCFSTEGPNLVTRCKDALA
T1 sequence (chain, as listed by the source): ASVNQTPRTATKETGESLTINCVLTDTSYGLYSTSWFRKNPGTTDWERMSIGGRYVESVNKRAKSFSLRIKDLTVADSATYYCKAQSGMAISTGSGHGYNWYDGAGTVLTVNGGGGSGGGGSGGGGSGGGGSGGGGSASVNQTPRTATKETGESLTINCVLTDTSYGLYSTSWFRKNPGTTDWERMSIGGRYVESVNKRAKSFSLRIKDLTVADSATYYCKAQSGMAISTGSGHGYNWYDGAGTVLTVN
T3 sequence (chain, as listed by the source): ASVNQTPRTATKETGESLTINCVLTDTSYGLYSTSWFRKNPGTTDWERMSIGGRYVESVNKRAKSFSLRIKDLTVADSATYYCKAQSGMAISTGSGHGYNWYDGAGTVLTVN
T9 sequence (P02770 25-608 limits assumed): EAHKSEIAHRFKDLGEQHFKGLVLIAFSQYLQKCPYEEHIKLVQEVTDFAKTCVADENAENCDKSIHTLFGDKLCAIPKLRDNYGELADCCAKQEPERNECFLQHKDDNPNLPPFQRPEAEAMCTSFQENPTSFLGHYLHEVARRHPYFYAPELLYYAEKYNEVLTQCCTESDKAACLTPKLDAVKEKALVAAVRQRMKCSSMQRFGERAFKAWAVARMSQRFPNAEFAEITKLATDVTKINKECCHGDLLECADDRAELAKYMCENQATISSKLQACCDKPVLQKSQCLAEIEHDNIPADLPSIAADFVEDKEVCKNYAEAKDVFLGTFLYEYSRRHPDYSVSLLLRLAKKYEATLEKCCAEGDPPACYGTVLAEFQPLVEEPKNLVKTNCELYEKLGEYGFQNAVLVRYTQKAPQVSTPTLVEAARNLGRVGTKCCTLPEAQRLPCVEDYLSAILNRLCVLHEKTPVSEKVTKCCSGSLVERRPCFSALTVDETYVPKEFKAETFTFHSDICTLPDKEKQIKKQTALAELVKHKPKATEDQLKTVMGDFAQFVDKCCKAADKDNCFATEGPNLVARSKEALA
T2 sequence (chain, as listed by the source): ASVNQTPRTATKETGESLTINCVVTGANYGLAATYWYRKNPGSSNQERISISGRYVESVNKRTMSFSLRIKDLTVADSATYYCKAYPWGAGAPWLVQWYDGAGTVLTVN

binding result (D3-[G4S]5-D3 homodimer): no binding (tested: 1000 nM)
binding result [1]: no binding (tested: 1000 nM)
binding result (D3 VNAR): no binding (tested: 1000 nM)
Binder: RSTIYGSRLRIRNLDTTDTGYFQ (also called ROR1 ECD Peptide 5) [peptide 5]

Kd [2]: 0.36 nM
koff [2]: 0.000598 s⁻¹
kon [2]: 1.67e+06 M⁻¹ s⁻¹
binding result [3]: no binding
B1: P3A1 dimer without tag (VNAR)
chain: TRVDQTPRTATKETGESLTINCVLTDTSYGLYSTSWFRKNPGTTDWERMSIGGRYVESVNKGAKSFSLRIKDLTVADSATYYCKAREARHPWLRQWYDGAGTVLTVNGGGGSGGGGSGGGGSGGGGSGGGGSTRVDQTPRTATKETGESLTINCVLTDTSYGLYSTSWFRKNPGTTDWERMSIGGRYVESVNKGAKSFSLRIKDLTVADSATYYCKAREARHPWLRQWYDGAGTVLTVN
notes: also called P3A1 dimer No tag

Kd [2]: 25.6 nM
koff [2]: 0.025 s⁻¹
kon [2]: 980000 M⁻¹ s⁻¹
binding result [3]: no binding
B2: P3A1 VNAR with His6Myc tag (VNAR)
VNAR: TRVDQTPRTATKETGESLTINCVLTDTSYGLYSTSWFRKNPGTTDWERMSIGGRYVESVNKGAKSFSLRIKDLTVADSATYYCKAREARHPWLRQWYDGAGTVLTVNQ
notes: shark VNAR domain; also called P3A1 6xHis myc

binding result [4]: no binding (tested: 10 ug/ml)
EC50 (read off the curve) [5]: ~0.3 µg/mL
Kd [6]: 19.1 nM
koff [6]: 0.0442 s⁻¹
kon [6]: 2.47e+06 M⁻¹ s⁻¹
Kd [7]: 14.3 nM
koff [7]: 0.0408 s⁻¹
kon [7]: 2.95e+06 M⁻¹ s⁻¹
Kd [8]: 17.7 nM
koff [8]: 0.045 s⁻¹
kon [8]: 2.86e+06 M⁻¹ s⁻¹
B3: P3A1 VNAR (C-terminal His6 or His6Myc tag, not said which) (VNAR, not shown: small tags and cut ends)
VNAR: TRVDQTPRTATKETGESLTINCVLTDTSYGLYSTSWFRKNPGTTDWERMSIGGRYVESVNKGAKSFSLRIKDLTVADSATYYCKAREARHPWLRQWYDGAGTVLTVN
notes: shark VNAR domain; also called P3A1 monomer

Kd [2]: 7.8 nM
koff [2]: 0.0206 s⁻¹
kon [2]: 2.92e+06 M⁻¹ s⁻¹
binding result [3]: no binding
B4: P3A1 VNAR with 6xHis tag (VNAR, not shown: small tags and cut ends)
VNAR: B3 VNAR
notes: shark VNAR domain; also called P3A1 6xHis

binding result (mouse serum albumin): no binding
binding result (rat serum albumin): no binding
binding result [7]: no binding
binding result [9]: no binding
binding result [8]: no binding
B5: 2V control VNAR (VNAR, not shown: small tags and cut ends)
VNAR: B3 VNAR with R86Q, E87S, A88L, R89A, H90I, P91S, W92T, L93R, R94S, Q95Y
notes: control VNAR from a naive library, no known target; also called 2V monomer
